Experimental data taken from patent publication US20250218531A1 (ABSCI, published 2025).
Where a chain is given by its changes, count along the chain named. Several values for one entry are separate records, joined by “and”; a condition that tells them apart may be missing. Equal values may be shown once.

B1: Trastuzumab HCDR3 variant ATWPHINTRIYAFDP (Fab, V domains shown)
VH: EVQLVESGGGLVQPGGSLRLSCAASGFNIKDTYIHWVRQAPGKGLEWVARIYPTNGYTRYADSVKGRFTISADTSKNTAYLQMNSLRAEDTAVYYCATWPHINTRIYAFDPWGQGTLVTVSS
VL: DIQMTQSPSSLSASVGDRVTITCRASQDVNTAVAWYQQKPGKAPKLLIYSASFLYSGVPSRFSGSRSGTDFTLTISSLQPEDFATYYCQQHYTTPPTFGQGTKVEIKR
B2: Trastuzumab HCDR3 variant ARGGYYGYWYYFDY (Fab, V domains shown)
VH: EVQLVESGGGLVQPGGSLRLSCAASGFNIKDTYIHWVRQAPGKGLEWVARIYPTNGYTRYADSVKGRFTISADTSKNTAYLQMNSLRAEDTAVYYCARGGYYGYWYYFDYWGQGTLVTVSS
VL: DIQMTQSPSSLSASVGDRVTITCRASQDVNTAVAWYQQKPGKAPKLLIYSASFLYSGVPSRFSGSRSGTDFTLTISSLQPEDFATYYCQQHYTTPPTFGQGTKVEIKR
B3: Trastuzumab HCDR3 variant ARLAFDSVSFYSDY (Fab, V domains shown)
VH: B2 VH with G99L, G100A, Y101F, Y102D, G103S, Y104V, W105S, Y106F, F108S
VL: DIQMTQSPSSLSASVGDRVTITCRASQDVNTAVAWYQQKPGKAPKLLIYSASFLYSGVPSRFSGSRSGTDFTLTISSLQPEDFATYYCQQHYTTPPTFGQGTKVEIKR
B4: Trastuzumab HCDR3 variant ARSHYGYYDYYTDF (Fab, V domains shown)
VH: B2 VH with G99S, G100H, Y102G, G103Y, W105D, F108T, Y110F
VL: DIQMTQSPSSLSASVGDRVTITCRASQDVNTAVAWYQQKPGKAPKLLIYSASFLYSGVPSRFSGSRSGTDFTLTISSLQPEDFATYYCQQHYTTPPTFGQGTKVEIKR
B5: Trastuzumab HCDR3 variant ARYRGGYGGYVFDP (Fab, V domains shown)
VH: B2 VH with G99Y, G100R, Y101G, Y102G, G103Y, Y104G, W105G, Y107V, Y110P
VL: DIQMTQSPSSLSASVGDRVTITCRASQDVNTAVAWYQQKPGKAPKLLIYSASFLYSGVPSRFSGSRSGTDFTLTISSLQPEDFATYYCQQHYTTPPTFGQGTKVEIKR
B6: Trastuzumab HCDR3 variant ATGYGYLLYSDHD (Fab, V domains shown)
VH: EVQLVESGGGLVQPGGSLRLSCAASGFNIKDTYIHWVRQAPGKGLEWVARIYPTNGYTRYADSVKGRFTISADTSKNTAYLQMNSLRAEDTAVYYCATGYGYLLYSDHDWGQGTLVTVSS
VL: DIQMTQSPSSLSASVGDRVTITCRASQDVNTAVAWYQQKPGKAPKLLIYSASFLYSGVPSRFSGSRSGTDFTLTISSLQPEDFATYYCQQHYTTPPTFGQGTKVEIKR
B7: Trastuzumab HCDR3 variant TRYRGAHGYYFDY (Fab, V domains shown)
VH: EVQLVESGGGLVQPGGSLRLSCAASGFNIKDTYIHWVRQAPGKGLEWVARIYPTNGYTRYADSVKGRFTISADTSKNTAYLQMNSLRAEDTAVYYCTRYRGAHGYYFDYWGQGTLVTVSS
VL: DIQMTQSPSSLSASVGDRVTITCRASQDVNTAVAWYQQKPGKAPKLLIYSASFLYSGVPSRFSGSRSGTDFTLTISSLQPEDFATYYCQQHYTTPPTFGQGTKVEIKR
B8: Trastuzumab HCDR3 variant VRYPEVYGYYFDY (Fab, V domains shown)
VH: B7 VH with T97V, R100P, G101E, A102V, H103Y
VL: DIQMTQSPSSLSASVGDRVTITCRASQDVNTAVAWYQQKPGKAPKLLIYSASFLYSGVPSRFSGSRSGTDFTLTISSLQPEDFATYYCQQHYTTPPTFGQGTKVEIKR
B9: Trastuzumab HCDR3 variant ATSGSVDRYDYVY (Fab, V domains shown)
VH: B6 VH with G99S, Y100G, G101S, Y102V, L103D, L104R, S106D, D107Y, H108V, D109Y
VL: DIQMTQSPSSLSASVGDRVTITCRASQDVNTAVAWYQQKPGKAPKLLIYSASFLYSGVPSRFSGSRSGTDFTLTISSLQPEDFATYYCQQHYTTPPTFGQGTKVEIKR
B10: Trastuzumab HCDR3 variant AVYGPYGGFSYDS (Fab, V domains shown)
VH: B6 VH with T98V, G99Y, Y100G, G101P, L103G, L104G, Y105F, D107Y, H108D, D109S
VL: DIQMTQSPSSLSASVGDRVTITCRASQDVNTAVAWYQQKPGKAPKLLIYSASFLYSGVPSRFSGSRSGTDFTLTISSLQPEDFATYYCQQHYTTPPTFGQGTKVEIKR
B11: Trastuzumab HCDR3 variant TRYYGGYGYYFDY (Fab, V domains shown)
VH: B7 VH with R100Y, A102G, H103Y
VL: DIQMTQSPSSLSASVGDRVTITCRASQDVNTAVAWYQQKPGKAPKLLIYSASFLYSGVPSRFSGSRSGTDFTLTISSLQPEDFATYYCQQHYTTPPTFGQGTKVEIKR
B12: Trastuzumab HCDR3 variant TRWRWGYGYYFDF (Fab, V domains shown)
VH: B7 VH with Y99W, G101W, A102G, H103Y, Y109F
VL: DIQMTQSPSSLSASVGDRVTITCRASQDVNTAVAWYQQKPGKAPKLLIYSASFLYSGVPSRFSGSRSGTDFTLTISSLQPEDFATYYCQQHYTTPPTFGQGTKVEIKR
B13: Trastuzumab HCDR3 variant TRYYGDGYYDFDY (Fab, V domains shown)
VH: B7 VH with R100Y, A102D, H103G, G104Y, Y106D
VL: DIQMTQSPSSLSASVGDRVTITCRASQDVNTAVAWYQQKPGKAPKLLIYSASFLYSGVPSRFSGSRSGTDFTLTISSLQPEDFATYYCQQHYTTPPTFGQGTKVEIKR
B14: Trastuzumab HCDR3 variant SRYYDYNYYFMDY (Fab, V domains shown)
VH: B7 VH with T97S, R100Y, G101D, A102Y, H103N, G104Y, Y106F, F107M
VL: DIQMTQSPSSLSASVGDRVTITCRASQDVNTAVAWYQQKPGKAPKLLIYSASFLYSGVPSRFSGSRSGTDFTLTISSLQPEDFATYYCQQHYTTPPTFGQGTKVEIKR
B15: Trastuzumab HCDR3 variant SRYGRGVYYYFDY (Fab, V domains shown)
VH: B7 VH with T97S, R100G, G101R, A102G, H103V, G104Y
VL: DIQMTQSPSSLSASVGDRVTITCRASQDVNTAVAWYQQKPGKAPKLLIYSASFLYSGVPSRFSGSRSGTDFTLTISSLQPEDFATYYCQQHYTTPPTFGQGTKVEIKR
B16: Trastuzumab HCDR3 variant SYPDFGYYVYFAY (Fab, V domains shown)
VH: B7 VH with T97S, R98Y, Y99P, R100D, G101F, A102G, H103Y, G104Y, Y105V, D108A
VL: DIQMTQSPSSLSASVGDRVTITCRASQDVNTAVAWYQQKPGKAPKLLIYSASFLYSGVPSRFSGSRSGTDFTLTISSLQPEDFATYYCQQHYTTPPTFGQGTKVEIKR
B17: Trastuzumab HCDR3 variant ARDGHYFTYDY (Fab, V domains shown)
VH: EVQLVESGGGLVQPGGSLRLSCAASGFNIKDTYIHWVRQAPGKGLEWVARIYPTNGYTRYADSVKGRFTISADTSKNTAYLQMNSLRAEDTAVYYCARDGHYFTYDYWGQGTLVTVSS
VL: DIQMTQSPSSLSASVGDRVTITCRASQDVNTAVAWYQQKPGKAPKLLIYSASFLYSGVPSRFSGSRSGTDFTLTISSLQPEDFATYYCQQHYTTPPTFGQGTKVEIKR
B18: Trastuzumab HCDR3 variant AKYVASGYSLA (Fab, V domains shown)
VH: B17 VH with R98K, D99Y, G100V, H101A, Y102S, F103G, T104Y, Y105S, D106L, Y107A
VL: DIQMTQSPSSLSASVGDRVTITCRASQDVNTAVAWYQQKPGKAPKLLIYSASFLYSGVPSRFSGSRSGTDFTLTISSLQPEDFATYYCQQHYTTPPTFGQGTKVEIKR
B19: Trastuzumab HCDR3 variant ARFDLVGAFDY (Fab, V domains shown)
VH: B17 VH with D99F, G100D, H101L, Y102V, F103G, T104A, Y105F
VL: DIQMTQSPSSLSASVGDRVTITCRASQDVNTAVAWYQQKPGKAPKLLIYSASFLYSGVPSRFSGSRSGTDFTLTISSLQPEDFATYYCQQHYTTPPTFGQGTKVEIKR
B20: Trastuzumab HCDR3 variant AFPWAGHYMER (Fab, V domains shown)
VH: B17 VH with R98F, D99P, G100W, H101A, Y102G, F103H, T104Y, Y105M, D106E, Y107R
VL: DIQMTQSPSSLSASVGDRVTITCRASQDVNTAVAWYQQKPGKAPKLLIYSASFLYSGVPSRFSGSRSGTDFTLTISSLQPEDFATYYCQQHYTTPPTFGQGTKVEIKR
B21: Trastuzumab HCDR3 variant ASYAGYSPFDY (Fab, V domains shown)
VH: B17 VH with R98S, D99Y, G100A, H101G, F103S, T104P, Y105F
VL: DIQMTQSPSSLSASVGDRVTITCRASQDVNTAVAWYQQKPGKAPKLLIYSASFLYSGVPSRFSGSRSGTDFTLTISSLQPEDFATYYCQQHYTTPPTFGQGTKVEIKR
B22: Trastuzumab HCDR3 variant AINLRGYWMDN (Fab, V domains shown)
VH: B17 VH with R98I, D99N, G100L, H101R, Y102G, F103Y, T104W, Y105M, Y107N
VL: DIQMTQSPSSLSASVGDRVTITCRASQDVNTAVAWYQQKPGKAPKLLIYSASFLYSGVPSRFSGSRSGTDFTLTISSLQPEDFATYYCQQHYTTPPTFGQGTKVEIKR
B23: Trastuzumab HCDR3 variant ATGYSYLRFYD (Fab, V domains shown)
VH: B17 VH with R98T, D99G, G100Y, H101S, F103L, T104R, Y105F, D106Y, Y107D
VL: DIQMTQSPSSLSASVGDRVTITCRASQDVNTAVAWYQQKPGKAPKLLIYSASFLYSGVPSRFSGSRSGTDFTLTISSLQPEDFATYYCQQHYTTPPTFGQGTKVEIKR
B24: Trastuzumab HCDR3 variant AADGYRGTYSF (Fab, V domains shown)
VH: B17 VH with R98A, H101Y, Y102R, F103G, D106S, Y107F
VL: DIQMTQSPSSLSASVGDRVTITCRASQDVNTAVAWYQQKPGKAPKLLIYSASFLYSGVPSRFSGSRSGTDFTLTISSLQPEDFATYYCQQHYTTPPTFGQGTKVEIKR
B25: Trastuzumab HCDR3 variant ATGYSYLRYYD (Fab, V domains shown)
VH: B17 VH with R98T, D99G, G100Y, H101S, F103L, T104R, D106Y, Y107D
VL: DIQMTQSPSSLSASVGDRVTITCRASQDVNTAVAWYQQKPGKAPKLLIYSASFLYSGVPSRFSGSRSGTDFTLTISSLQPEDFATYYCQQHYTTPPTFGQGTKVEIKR
B26: Trastuzumab HCDR3 variant ARYSYYRYYFE (Fab, V domains shown)
VH: B17 VH with D99Y, G100S, H101Y, F103R, T104Y, D106F, Y107E
VL: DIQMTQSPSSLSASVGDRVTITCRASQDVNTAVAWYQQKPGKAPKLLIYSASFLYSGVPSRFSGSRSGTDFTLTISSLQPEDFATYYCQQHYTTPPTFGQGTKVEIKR
B27: Trastuzumab HCDR3 variant AKYVLVGSYGV (Fab, V domains shown)
VH: B17 VH with R98K, D99Y, G100V, H101L, Y102V, F103G, T104S, D106G, Y107V
VL: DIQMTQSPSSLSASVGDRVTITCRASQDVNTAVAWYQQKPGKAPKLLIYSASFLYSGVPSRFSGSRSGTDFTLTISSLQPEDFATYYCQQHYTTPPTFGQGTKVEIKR
B28: Trastuzumab HCDR3 variant AAWYSTYYFDY (Fab, V domains shown)
VH: B17 VH with R98A, D99W, G100Y, H101S, Y102T, F103Y, T104Y, Y105F
VL: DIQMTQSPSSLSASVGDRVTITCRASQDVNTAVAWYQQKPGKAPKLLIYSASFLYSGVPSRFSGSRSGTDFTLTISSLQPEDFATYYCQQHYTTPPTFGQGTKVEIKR
B29: Trastuzumab HCDR3 variant VRGYGYNFYYHGFSY (Fab, V domains shown)
VH: EVQLVESGGGLVQPGGSLRLSCAASGFNIKDTYIHWVRQAPGKGLEWVARIYPTNGYTRYADSVKGRFTISADTSKNTAYLQMNSLRAEDTAVYYCVRGYGYNFYYHGFSYWGQGTLVTVSS
VL: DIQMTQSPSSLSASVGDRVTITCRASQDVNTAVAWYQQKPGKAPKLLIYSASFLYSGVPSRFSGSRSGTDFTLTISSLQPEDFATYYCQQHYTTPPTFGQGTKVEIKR
B30: Trastuzumab HCDR3 variant AYTGAPHGGYHYYAY (Fab, V domains shown)
VH: EVQLVESGGGLVQPGGSLRLSCAASGFNIKDTYIHWVRQAPGKGLEWVARIYPTNGYTRYADSVKGRFTISADTSKNTAYLQMNSLRAEDTAVYYCAYTGAPHGGYHYYAYWGQGTLVTVSS
VL: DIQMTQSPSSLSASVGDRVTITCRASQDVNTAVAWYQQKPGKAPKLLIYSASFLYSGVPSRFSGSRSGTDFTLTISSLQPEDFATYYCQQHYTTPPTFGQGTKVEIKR
B31: Trastuzumab HCDR3 variant ARSGGHGVNGHWRSF (Fab, V domains shown)
VH: EVQLVESGGGLVQPGGSLRLSCAASGFNIKDTYIHWVRQAPGKGLEWVARIYPTNGYTRYADSVKGRFTISADTSKNTAYLQMNSLRAEDTAVYYCARSGGHGVNGHWRSFWGQGTLVTVSS
VL: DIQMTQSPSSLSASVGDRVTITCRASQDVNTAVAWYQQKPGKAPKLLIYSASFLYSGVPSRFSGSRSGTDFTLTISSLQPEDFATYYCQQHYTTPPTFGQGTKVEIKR
B32: Multi-step trastuzumab HCDR3 variant ARSGGSGYYYYDY (SEQ ID NO: 524) (Fab, V domains shown)
VH: B7 VH with T97A, Y99S, R100G, A102S, H103G, G104Y, F107Y
VL: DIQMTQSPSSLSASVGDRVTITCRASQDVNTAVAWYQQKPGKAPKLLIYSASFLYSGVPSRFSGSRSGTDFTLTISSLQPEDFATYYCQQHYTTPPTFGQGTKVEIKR
B33: De novo trastuzumab HCDR1|2|3 variant GFNISDYY / IYPSSGYT / ARDGGVGSYSMDV (Fab, V domains shown)
VH: EVQLVESGGGLVQPGGSLRLSCAASGFNISDYYIHWVRQAPGKGLEWVARIYPSSGYTRYADSVKGRFTISADTSKNTAYLQMNSLRAEDTAVYYCARDGGVGSYSMDVWGQGTLVTVSS
VL: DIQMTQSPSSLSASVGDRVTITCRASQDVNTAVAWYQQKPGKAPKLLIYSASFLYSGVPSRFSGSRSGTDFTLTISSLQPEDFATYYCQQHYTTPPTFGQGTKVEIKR
notes: also called AI Design 2
B34: De novo trastuzumab HCDR2|3 variant IDPADGYT / AREGGYGYYAMDY (Fab, V domains shown)
VH: B33 VH with S30K, Y32T, Y52D, S54A, S55D, D99E, V102Y, S104Y, S106A, V109Y
VL: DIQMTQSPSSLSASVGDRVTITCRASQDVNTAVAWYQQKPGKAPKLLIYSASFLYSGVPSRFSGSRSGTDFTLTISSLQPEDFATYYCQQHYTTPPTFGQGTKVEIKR
notes: also called AI Design 6
B35: De novo trastuzumab HCDR1|2|3 variant GFNFKDTY / IYPANGYT / ASDGGSYSYAFDY (Fab, V domains shown)
VH: B7 VH with I29F, T54A, T97A, R98S, Y99D, R100G, A102S, H103Y, G104S, Y106A
VL: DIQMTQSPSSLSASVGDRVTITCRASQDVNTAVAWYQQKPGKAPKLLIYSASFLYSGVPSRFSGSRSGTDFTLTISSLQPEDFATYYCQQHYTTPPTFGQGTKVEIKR
notes: also called AI Design 5
B36: De novo trastuzumab HCDR1|2|3 variant GFNIKDTW / IDPANGYT / ARVGGRGYYYYDY (Fab, V domains shown)
VH: B7 VH with Y33W, Y52D, T54A, T97A, Y99V, R100G, A102R, H103G, G104Y, F107Y
VL: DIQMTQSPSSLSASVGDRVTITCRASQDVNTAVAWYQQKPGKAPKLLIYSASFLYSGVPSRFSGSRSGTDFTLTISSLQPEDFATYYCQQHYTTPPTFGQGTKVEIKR
notes: also called AI Design 4
B37: De novo trastuzumab HCDR2|3 variant IYPANGYT / AREGGVGYYSFAY (Fab, V domains shown)
VH: B7 VH with T54A, T97A, Y99E, R100G, A102V, H103G, G104Y, Y106S, D108A
VL: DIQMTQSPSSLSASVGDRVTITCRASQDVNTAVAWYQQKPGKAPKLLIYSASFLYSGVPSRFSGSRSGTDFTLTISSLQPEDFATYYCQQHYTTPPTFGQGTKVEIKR
B38: De novo trastuzumab HCDR1|2|3 variant GFNIKDYY / IYPSRGYT / ARHGSEGRYTMDV (Fab, V domains shown)
VH: B33 VH with S30K, S55R, D99H, G101S, V102E, S104R, S106T
VL: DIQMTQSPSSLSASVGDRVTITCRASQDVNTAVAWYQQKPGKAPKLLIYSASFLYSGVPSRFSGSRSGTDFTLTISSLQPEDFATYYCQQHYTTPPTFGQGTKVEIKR
notes: also called AI Design 3
B39: De novo trastuzumab HCDR2|3 variant IDPENGYT / ARVGGYGYYYYDY (Fab, V domains shown)
VH: B7 VH with Y52D, T54E, T97A, Y99V, R100G, A102Y, H103G, G104Y, F107Y
VL: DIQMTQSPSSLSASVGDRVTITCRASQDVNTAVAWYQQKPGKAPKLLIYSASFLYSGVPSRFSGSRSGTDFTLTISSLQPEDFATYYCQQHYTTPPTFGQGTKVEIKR
B40: De novo trastuzumab HCDR2|3 variant IYPANGYT / ASSGGSSSYYYNY (Fab, V domains shown)
VH: B7 VH with T54A, T97A, R98S, Y99S, R100G, A102S, H103S, G104S, F107Y, D108N
VL: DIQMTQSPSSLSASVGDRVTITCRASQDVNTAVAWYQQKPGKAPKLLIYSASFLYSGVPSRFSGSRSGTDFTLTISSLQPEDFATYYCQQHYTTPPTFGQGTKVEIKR
B41: De novo trastuzumab HCDR2|3 variant IYPANGYT / ASSGGGYSYYYTY (Fab, V domains shown)
VH: B7 VH with T54A, T97A, R98S, Y99S, R100G, A102G, H103Y, G104S, F107Y, D108T
VL: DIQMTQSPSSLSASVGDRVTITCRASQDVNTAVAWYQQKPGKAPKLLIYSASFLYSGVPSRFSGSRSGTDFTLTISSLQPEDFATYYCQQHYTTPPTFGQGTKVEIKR
B42: De novo trastuzumab HCDR2|3 variant IDPANGYT / ARVGGRGYYYYDY (Fab, V domains shown)
VH: B7 VH with Y52D, T54A, T97A, Y99V, R100G, A102R, H103G, G104Y, F107Y
VL: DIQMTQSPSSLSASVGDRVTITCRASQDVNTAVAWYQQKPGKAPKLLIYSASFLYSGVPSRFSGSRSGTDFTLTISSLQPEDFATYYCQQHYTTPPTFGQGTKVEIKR
notes: also called AI Design 7

molecular target: human epidermal growth factor receptor 2 (HER2) extracellular domain (human, UniProt P04626 23-629); assay: SPR

Row | Binder | Kd | log(KD (M))
1 | B1 | 117 nM | -6.93 log(M)
2 | B2 | 51.2 nM | -7.29 log(M)
3 | B3 | 187 nM | -6.73 log(M)
4 | B4 | 116 nM | -6.94 log(M)
5 | B5 | 120 nM | -6.92 log(M)
6 | B6 | 171 nM | -6.77 log(M)
7 | B7 | 35.5 nM | -7.45 log(M)
8 | B8 | 36.3 nM | -7.44 log(M)
9 | B9 | 155 nM | -6.81 log(M)
10 | B10 | 70.7 nM | -7.15 log(M)
11 | B11 | 41.6 nM | -7.38 log(M)
12 | B12 | 78.1 nM | -7.11 log(M)
13 | B13 | 29.2 nM | -7.53 log(M)
14 | B14 | 141 nM | -6.85 log(M)
15 | B15 | 79.7 nM | -7.1 log(M)
16 | B16 | 36.8 nM | -7.43 log(M)

Row | Binder | Kd | log(KD (M))
17 | B17 | 45.1 nM | -7.35 log(M)
18 | B18 | 109 nM | -6.96 log(M)
19 | B19 | 151 nM | -6.82 log(M)
20 | B20 | 95 nM | -7.02 log(M)
21 | B21 | 202 nM | -6.7 log(M)
22 | B22 | 41.5 nM | -7.38 log(M)
23 | B23 | 164 nM | -6.79 log(M)
24 | B24 | 79.2 nM | -7.1 log(M)
25 | B25 | 273 nM | -6.56 log(M)
26 | B26 | 74.6 nM | -7.13 log(M)
27 | B27 | 50.2 nM and 50.1 nM | -7.3 log(M)
28 | B28 | 49.4 nM | -7.31 log(M)
29 | B29 | 147 nM and 146 nM | -6.83 log(M)
30 | B30 | 49.4 nM | -7.31 log(M)
31 | B31 | 49.8 nM | -7.3 log(M)

molecular target: human epidermal growth factor receptor 2 (HER2) extracellular domain (human, UniProt P04626 23-629); assay: SPR, Fab format

Row | Binder | Kd | log(KD (M))
32 | B32 | 1830 nM | -5.74 log M
33 | B33 | 1320 nM | -5.88 log M
34 | B34 | 160 nM | -6.8 log M
35 | B35 | 642 nM | -6.19 log M
36 | B36 | 394 nM | -6.4 log M
37 | B37 | 213 nM | -6.67 log M
38 | B38 | 192 nM | -6.72 log M
39 | B39 | 277 nM | -6.56 log M
40 | B40 | 554 nM | -6.26 log M
41 | B41 | 476 nM | -6.32 log M
42 | B42 | 134 nM | -6.87 log M
